Measurements from patent US7556938B1, “Nucleic acids encoding potassium channel interactors” (Millennium Pharmaceuticals, Inc., priority 1998, dated 2009).

T1: rKv4.3N (Rattus norvegicus, UniProt Q62897)
T1 construct: expressed in transfected cells; host or cells: yeast HF7c (bait), mated with Y187 (fish)
T1 sequence (Q62897 1-180): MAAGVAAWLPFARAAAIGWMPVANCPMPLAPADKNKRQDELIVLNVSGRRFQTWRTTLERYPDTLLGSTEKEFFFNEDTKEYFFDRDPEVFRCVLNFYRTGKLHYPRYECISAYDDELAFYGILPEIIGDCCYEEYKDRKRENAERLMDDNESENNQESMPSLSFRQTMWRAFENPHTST

T2: rKv4.2N (Rattus norvegicus, UniProt Q63881)
T2 construct: the N-terminal domains of Kv4.3, Kv4.2 were expressed as “baits” (Kv4.3N, Kv4.2N, respectively); expressed in transfected cells; host or cells: yeast HF7c (baits), mated with Y187 (fish)
T2 sequence (Q63881 1-184 limits assumed): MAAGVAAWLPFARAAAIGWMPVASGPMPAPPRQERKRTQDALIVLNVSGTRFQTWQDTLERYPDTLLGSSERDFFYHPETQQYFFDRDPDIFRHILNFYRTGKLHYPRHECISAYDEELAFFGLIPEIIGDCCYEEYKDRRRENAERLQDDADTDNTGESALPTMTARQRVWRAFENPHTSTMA

T3: rKv4.2 (Rattus norvegicus, UniProt Q63881)
T3 construct: expressed in transfected cells; host or cells: CHO cells, transient transfection with GFP co-transfected
T3 sequence (Q63881 1-630): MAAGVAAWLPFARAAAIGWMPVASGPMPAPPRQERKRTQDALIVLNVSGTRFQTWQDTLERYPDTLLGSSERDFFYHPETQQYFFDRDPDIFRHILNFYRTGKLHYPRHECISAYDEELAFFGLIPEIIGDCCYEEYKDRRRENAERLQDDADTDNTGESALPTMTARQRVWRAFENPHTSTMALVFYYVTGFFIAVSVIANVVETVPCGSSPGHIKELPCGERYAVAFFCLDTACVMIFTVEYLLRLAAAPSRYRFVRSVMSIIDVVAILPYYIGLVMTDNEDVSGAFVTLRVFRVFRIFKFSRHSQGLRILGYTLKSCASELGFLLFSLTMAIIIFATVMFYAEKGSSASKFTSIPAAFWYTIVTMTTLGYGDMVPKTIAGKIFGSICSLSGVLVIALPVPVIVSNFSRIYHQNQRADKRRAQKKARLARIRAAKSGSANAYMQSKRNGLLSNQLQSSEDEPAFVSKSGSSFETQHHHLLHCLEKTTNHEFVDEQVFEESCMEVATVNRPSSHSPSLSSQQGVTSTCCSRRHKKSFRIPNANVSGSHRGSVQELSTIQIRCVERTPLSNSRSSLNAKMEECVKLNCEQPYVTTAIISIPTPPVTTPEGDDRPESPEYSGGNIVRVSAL


Columns and labels:
rKv4.3N = target: T1, rKv4.3N; test: Yeast two-hybrid binding and specificity test, Kv4.3 N-terminal bait; conditions: for preference between rKv4.3N and rKv4.2N in yeast two-hybrid assay: rKv4.3N versus rKv4.2N
Method: The first 180 amino acids of rKv4.3 (described in Serdio P. et al. (1996) J. Neurophys 75:2174-2179) were amplified by PCR and cloned in frame into pGBT9 resulting in plasmid pFWA2, (hereinafter “bait”). This bait was transformed into the two-hybrid screening strain HF7c and tested for expression and self-activation. The bait was validated for expression by Western blotting.
(§1) Two-hybrid screens were carried out essentially as described in Bartel, P. et al. (1993) “Using the Two-Hybrid System to Detect Polypeptide-Polypeptide Interactions” in Cellular Interactions in Development: A Practical Approach, Hartley, D. A. ed. Oxford University Press, Oxford, pp. 153-179, with a bait-library pair of rkv4.3 bait-rat mid brain library. A filter disk beta-galactosidase (beta-gal) assay was performed essentially as previously described (Brill et al. (1994) Mol. Biol. Cell. 5:297-312). Clones that were positive for both reporter gene activity (His and beta-galactosidase) were scored and fish, plasmids were isolated from yeast, transformed into E. coli strain KC8, DNA plasmids were purified and the resulting plasmids were sequenced by conventional methods (Sanger F. et al. (1977) PNAS, 74: 5463-67).
(§2) Positive interactor clones were subjected to a binding specificity test where they were exposed to a panel of related and unrelated baits by a mating scheme previously described (Finley R. L. Jr. et al. (1994) PNAS, 91(26):12980-12984). Briefly, positive fish plasmids were transformed into Y187 and the panel of baits were transformed into HF7c. Transformed fish and bait cells were streaked out as stripes on selective medium plates, mated on YPAD plates, and tested for reporter gene activity.

rKv4.2N = target: T2, rKv4.2N; test: Yeast two-hybrid binding and specificity test, Kv4.2 N-terminal bait
Method: as §1, §2

rKv1.1N = target: T4, rKv1.1N (Rattus norvegicus, UniProt P10499); test: Yeast two-hybrid binding and specificity test, Kv1.1 N-terminal bait
T4 construct: expressed in transfected cells; host or cells: yeast HF7c (baits), mated with Y187 (fish)
Method: as §1, §2

rKv4.2 = target: T3, rKv4.2; test: Patch-clamp of Kv4.2 currents in CHO cells coexpressing KChIPs; assay type: cell-based; conditions: for effects on Kv4.2 current density and kinetics: coexpressed with Kv4.2
Method: HEK 293 and CHO cells were used for recordings 1-3 days after a transient transfection. Whole-cell currents were recorded from cells expressing GFP, identified by their green fluorescence. […] After Gigaseal and ruptured whole-cell configuration access, resistance was less than 10 MOhms. Whole-cell bath solutions were made from a 10× Hank's balanced salt solution (GibcoBRL) with the following final concentration (in mM): 138 NaCl, 5.4 KCl, 1.3 MgCl2, 1.3 CaCl2, 5.5 D-Glukos and 10 HEPES, pH 7.4. The intracellular electrode solution consisted of (in mM) 140 KCl, 10 HEPES, 10 EGTA, 0.5 MgCl2, pH 7.3. All chemicals were from Sigma (St. Louis, Mo.) or Fisher Scientific (Houston, Tex.). Membrane currents were recorded using a EPC9 patch-clamp amplifier (HEKA, Germany). Data were analyzed using Matlab (Natick, Ma), and leak subtracted if necessary. All experiments were done at room temperature.
Because PCIPs, e.g., KChIP1 (1v), KChIP2 (9ql), and KChIP3 (p19), colocalize and coassociate with Kv4 α-subunits in brain, another critical question was to determine whether these PCIPs alter the conductance properties of Kv4 channels. To address this issue, Kv4.2 and Kv4.3 were expressed alone and in combination with individual PCIPs. CHO cells were transiently-transfected with cDNA using the DOTAP lipofection method as described by the manufacturer (Boehringer Mannheim, Inc.). Transfected cells were identified by cotransfecting enhanced GFP along with the genes of interest and subsequently determining if the cells contained green GFP fluorescence. Currents in CHO cells were measured using the patch-clamp technique (Hamill et al. 1981. Pfluegers Arch. 391: 85-100).
First, the amplitude of the Kv4.2 current increased approximately 7.5 fold in the presence of KChIP1 (amplitude of Kv4.2 alone=0.60+/−0.096 nA/cell; Kv4.2+KChIP1=4.5+/−0.55 nA/cell). […] Finally, the kinetics of Kv4.2 inactivation slowed considerably when Kv4.2 was coexpressed with KChIP1 (inactivation time constant of Kv4.2 alone=28.2+/−2.6 ms; Kv4.2+KChIP1=104.1+/−10.4 ms), while channels recovered from inactivation much more rapidly in cells expressing both Kv4.2 and KChIP1 (recovery tau=53.6+/−7.6 ms) versus cells expressing Kv4.2 alone (recovery tau=272.2+/−26.1 ms).

T4 sequence (P10499 1-164 limits assumed): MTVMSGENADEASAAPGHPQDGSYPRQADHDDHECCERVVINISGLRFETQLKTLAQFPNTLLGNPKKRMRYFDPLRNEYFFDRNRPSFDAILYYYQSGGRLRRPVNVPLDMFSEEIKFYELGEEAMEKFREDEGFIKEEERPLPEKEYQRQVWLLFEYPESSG

Molecule	binding to rKv4.3N in yeast two-hybrid assay (rKv4.3N)	preference between rKv4.3N and rKv4.2N in yeast two-hybrid assay (rKv4.3N)	binding to rKv4.2N in yeast two-hybrid assay (rKv4.2N)	binding to rKv1.1N in yeast two-hybrid assay (rKv1.1N)	effects on Kv4.2 current density and kinetics (rKv4.2)	Inactivation time constant (ms, at 50 mV) (rKv4.2; rKv4.2 coexpressed with the KChIP, at 50 mV) [ms]
Rat 33b07: PCIP of 407 amino acid residues, homologous to SET and Nucleosome Assembly Proteins (protein) MNGVEGNNELPLANTSTSALVPEDLDLKQDQPLSEETDTVREMEAAGEAGAEGGASPDSEHCDPQLCLRVAENGCAAAAGEGLEDGLSSSKCGDAPLASVAANDSNKNGCQLAGPLSPAKPKTLEASGAVGLGSQMMPGPKKTKVMTTKGAISATTGKEGEAGAAMQEKKGVQKEKKAAGGGKDETRPRAPKINNCMDSLEAIDQELSNVNAQADRAFLQLERKFGRMRRLHMQRRSFIIQNIPGFWVTAFRNHPQLSPMISGQDEDMMRYMINLEVEELKHPRAGCKFKFIFQSNPYFRNEGLVKEYERRSSGRVVSLSTPIRWHRGQEPQAHIHRNREGNTIPSFFNWFSDHSLLEFDRIAEIIKGELWSNPLQYYLMGDGPRRGVRVPPRQPVESPRSFRFQSG	binds	slight preference for rKv4.2N	binds	does not bind	–	–
Rat 1p: partial rat PCIP of 267 amino acid residues, similar to human Restin (protein) LKGARPRVVNSTCSDFNHGSALHIAASNLCLGAAKCLLEHGANPALRNRKGQVPAEVVPDPMDMSLDKAEAALVAKELRTLLEEAVPLSCTLPKVTLPNYDNVPGNLMLSALGLRLGDRVLLDGQKTGTLRFCGTTEFASGQWVGVELDEPEGKNDGSVGGVRYFICPPKQGLFASVSKVSKAVDAPPSSVTSTPRTPRMDFSRVTGKGRREHKGKKKSPSSPSLGSLQQREGAKAEVGDQVLVAGQNRDCAFLWEDRLCSRLLVWH	binds	slight preference for rKv4.3N	binds	does not bind	–	–
Rat 7s: rat ortholog of the human vacuolar H(+)-ATPase catalytic subunit A (partial) (protein) ADSTSRWAEALREISGRLAEMPADSGYPAYLGARLASFYERAGRVKCLGNPEREGSVSIVGAVSPPGGDFSDPVTSATLGIVQVFWGLDKKLAQRKHFPSVNWLISYSKYMRALDEYYDKHFTEFVPLRTKAKEILQEEEDLAEIVQLVGKASLAETDKITLEVAKLIKDDFLQQNGYTPYDRFCPFYKTVGMLSNMISFYDMARRAVETTAQSDNKITWSIIREHMGEILYKLSSMKFKDPVKDGEAKIKADYAQLLEDMQNAFRSLED	binds	preference for rKv4.3N	binds	does not bind	–	–
KChIP1 ΔN2-31: N-terminal truncation mutant of KChIP1, reduced to the C-terminal 185 amino acid core sequence (protein) MLCSSLKLLHYLGLIDLSDDKIEDDLEMTMVCHRPEGLEQLEAQTNFTKRELQVLYRGFKNECPSGVVNEETFKQIYAQFFPHGDASTYAHYLFNAFDTTQTGSVKFEDFVTALSILLRGTVHEKLRWTFNLYDINKDGYINKEEMMDIVKAIYDMMGKYTYPVLKEDTPRQHVDVFFQKMDKNKD	–	–	–	–	indistinguishable from the effects produced by full-length KChIP1 or KChIP2	129.2 ± 14.2
KChIP3: Potassium channel interacting protein KChIP3 (p19) (protein) MQRTKEAMKASDGSLLGDPGRIPLSKREGIKWQRPRFTRQALMRCCLIKWILSSAAPQGSDSSDSELELSTVRHQPEGLDQLQAQTKFTKKELQSLYRGFKNECPTGLVDEDTFKLIYSQFFPQGDATTYAHFLFNAFDADGNGAIHFEDFVVGLSILLRGTVHEKLKWAFNLYDINKDGYITKEEMLAIMKSIYDMMGRHTYPILREDAPLEHVERFFQKMDRNQDGVVTIDEFLETCQKDENIMSSMQLFENVI	–	–	–	–	strikingly similar to those produced by KChIP1	–
KChIP2: Potassium channel interacting protein KChIP2 (9ql) (protein) MRGQGRKESLSESRDLDGSYDQLTGHPPGPSKKALKQRFLKLLPCCGPQALPSVSETLAAPASLRPHRPRPLDPDSVEDEFELSTVCHRPEGLEQLQEQTKFTRRELQVLYRGFKNECPSGIVNEENFKQIYSQFFPQGDSSNYATFLFNAFDTNHDGSVSFEDFVAGLSVILRGTIDDRLSWAFNLYDLNKDGCITKEEMLDIMKSIYDMMGKYTYPALREEAPREHVESFFQKMDRNKDGVVTIEEFIESCQQDENIMRSMQLFDNVI	–	–	–	–	strikingly similar to those produced by KChIP1	–
